The values that follow come from patent US20180155451A1 (published 2018).

The target in assay [1] is T1, FcγRIa extracellular domain with C-terminal His tag (human, UniProt P12314 16-292).
T1 construct: extracellular domain; soluble receptor expressed in FreeStyle293 cells, used as analyte in Biacore; also called FcgRI; 1a; not shown: His tag attached to the C terminus
The assay is described as follows: SPR (Biacore), antibody captured on antigen peptide chip, FcγR as analyte; relative binding. For orientation: In SPR one partner is held on a chip, and binding of the other changes the refractive index at the surface.

Assay [2] concerns the target T2, FcγRIIb extracellular domain with C-terminal His tag (human, UniProt P31994 43-217).
T2 construct: extracellular domain; soluble receptor expressed in FreeStyle293 cells, used as analyte in Biacore; also called FcgRIIb; 2b; not shown: His tag attached to the C terminus
T2 sequence (looked up): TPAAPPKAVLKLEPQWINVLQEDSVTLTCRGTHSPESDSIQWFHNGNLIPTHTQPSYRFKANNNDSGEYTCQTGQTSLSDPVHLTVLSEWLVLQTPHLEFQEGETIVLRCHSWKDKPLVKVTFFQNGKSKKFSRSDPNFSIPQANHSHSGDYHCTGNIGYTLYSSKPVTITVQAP
Described as above.

T1 sequence (P12314 16-292): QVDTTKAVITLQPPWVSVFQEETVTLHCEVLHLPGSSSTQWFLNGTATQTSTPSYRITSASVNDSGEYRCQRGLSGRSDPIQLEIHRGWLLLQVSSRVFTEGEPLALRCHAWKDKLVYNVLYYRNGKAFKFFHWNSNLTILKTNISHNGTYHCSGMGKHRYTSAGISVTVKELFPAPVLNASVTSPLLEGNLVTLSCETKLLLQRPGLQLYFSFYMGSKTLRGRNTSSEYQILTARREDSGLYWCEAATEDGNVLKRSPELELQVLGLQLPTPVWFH

B1: GpH7-A5/GpH7-B3 variant P271_20W/GpL16-k0 (antibody, human IgG1, kappa)
heavy 1: not shown
heavy 2: not shown
light: DIVMTQSPLSLPVTPGEPASISCQASESLVHSNRNTYLHWYLQKPGQSPQLLIYKVSNRFSGVPDRFSGSGSGTDFTLKISRVEAEDVGVYYCSQNTHVPPTFGQGTKVEIERTVAAPSVFIFPPSDEQLKSGTASVVCLLNNFYPREAKVQWKVDNALQSGNSQESVTEQDSKDSTYSLSSTLTLSKADYEKHKVYACEVTHQGLSSPVTKSFNRGEC
notes: heterodimerized anti-glypican-3 IgG1; alteration in the GpH7-B3 chain only; also called He Ab
As to B1, the He/Con_1a in assay [1] is 103 % of control GpH7-A5/GpH7-B3/GpL16-k0 (=100). The He/Con_2b in assay [2] is 58.1 % of control GpH7-A5/GpH7-B3/GpL16-k0 (=100).

B2: GpH7-A5/GpH7-B3 variant Q295_15Y/GpL16-k0 (antibody, human IgG1, kappa)
heavy 1: not shown
heavy 2: not shown
light: DIVMTQSPLSLPVTPGEPASISCQASESLVHSNRNTYLHWYLQKPGQSPQLLIYKVSNRFSGVPDRFSGSGSGTDFTLKISRVEAEDVGVYYCSQNTHVPPTFGQGTKVEIERTVAAPSVFIFPPSDEQLKSGTASVVCLLNNFYPREAKVQWKVDNALQSGNSQESVTEQDSKDSTYSLSSTLTLSKADYEKHKVYACEVTHQGLSSPVTKSFNRGEC
notes: as for B1
In the case of B2, the He/Con_1a in assay [1] was 102 % of control GpH7-A5/GpH7-B3/GpL16-k0 (=100). For the same molecule, the He/Con_2b in assay [2] was 65.4 % of control GpH7-A5/GpH7-B3/GpL16-k0 (=100).

B3: GpH7-A5/GpH7-B3 variant S324_10E/GpL16-k0 (antibody, human IgG1, kappa)
heavy 1: not shown
heavy 2: not shown
light: DIVMTQSPLSLPVTPGEPASISCQASESLVHSNRNTYLHWYLQKPGQSPQLLIYKVSNRFSGVPDRFSGSGSGTDFTLKISRVEAEDVGVYYCSQNTHVPPTFGQGTKVEIERTVAAPSVFIFPPSDEQLKSGTASVVCLLNNFYPREAKVQWKVDNALQSGNSQESVTEQDSKDSTYSLSSTLTLSKADYEKHKVYACEVTHQGLSSPVTKSFNRGEC
notes: as for B1
On to B3, for which the He/Con_1a in assay [1] is 105 % of control GpH7-A5/GpH7-B3/GpL16-k0 (=100). The He/Con_2b in assay [2] is 77.4 % of control GpH7-A5/GpH7-B3/GpL16-k0 (=100).

B4: GpH7-A5/GpH7-B3 variant Q295_13S/GpL16-k0 (antibody, human IgG1, kappa)
heavy 1: not shown
heavy 2: not shown
light: DIVMTQSPLSLPVTPGEPASISCQASESLVHSNRNTYLHWYLQKPGQSPQLLIYKVSNRFSGVPDRFSGSGSGTDFTLKISRVEAEDVGVYYCSQNTHVPPTFGQGTKVEIERTVAAPSVFIFPPSDEQLKSGTASVVCLLNNFYPREAKVQWKVDNALQSGNSQESVTEQDSKDSTYSLSSTLTLSKADYEKHKVYACEVTHQGLSSPVTKSFNRGEC
notes: as for B1
In the case of B4, in assay [1], the He/Con_1a was 102 % of control GpH7-A5/GpH7-B3/GpL16-k0 (=100). Also, the He/Con_2b in assay [2] was 56.9 % of control GpH7-A5/GpH7-B3/GpL16-k0 (=100).

B5: GpH7-A5/GpH7-B3 variant Q295_05P/GpL16-k0 (antibody, human IgG1, kappa)
heavy 1: not shown
heavy 2: not shown
light: DIVMTQSPLSLPVTPGEPASISCQASESLVHSNRNTYLHWYLQKPGQSPQLLIYKVSNRFSGVPDRFSGSGSGTDFTLKISRVEAEDVGVYYCSQNTHVPPTFGQGTKVEIERTVAAPSVFIFPPSDEQLKSGTASVVCLLNNFYPREAKVQWKVDNALQSGNSQESVTEQDSKDSTYSLSSTLTLSKADYEKHKVYACEVTHQGLSSPVTKSFNRGEC
notes: as for B1
Regarding B5, the He/Con_1a in assay [1] is 103 % of control GpH7-A5/GpH7-B3/GpL16-k0 (=100). For the same molecule, the He/Con_2b in assay [2] was 67.5 % of control GpH7-A5/GpH7-B3/GpL16-k0 (=100).

B6: GpH7-A5/GpH7-B3 variant Q295_07I/GpL16-k0 (antibody, human IgG1, kappa)
heavy 1: not shown
heavy 2: not shown
light: DIVMTQSPLSLPVTPGEPASISCQASESLVHSNRNTYLHWYLQKPGQSPQLLIYKVSNRFSGVPDRFSGSGSGTDFTLKISRVEAEDVGVYYCSQNTHVPPTFGQGTKVEIERTVAAPSVFIFPPSDEQLKSGTASVVCLLNNFYPREAKVQWKVDNALQSGNSQESVTEQDSKDSTYSLSSTLTLSKADYEKHKVYACEVTHQGLSSPVTKSFNRGEC
notes: as for B1
As to B6, the He/Con_1a in assay [1] was 103 % of control GpH7-A5/GpH7-B3/GpL16-k0 (=100). Also, in assay [2], the He/Con_2b was 84.3 % of control GpH7-A5/GpH7-B3/GpL16-k0 (=100).

B7: GpH7-A5/GpH7-B3 variant Q295_09D/GpL16-k0 (antibody, human IgG1, kappa)
heavy 1: not shown
heavy 2: not shown
light: DIVMTQSPLSLPVTPGEPASISCQASESLVHSNRNTYLHWYLQKPGQSPQLLIYKVSNRFSGVPDRFSGSGSGTDFTLKISRVEAEDVGVYYCSQNTHVPPTFGQGTKVEIERTVAAPSVFIFPPSDEQLKSGTASVVCLLNNFYPREAKVQWKVDNALQSGNSQESVTEQDSKDSTYSLSSTLTLSKADYEKHKVYACEVTHQGLSSPVTKSFNRGEC
notes: as for B1
As to B7, the He/Con_1a in assay [1] was 100 % of control GpH7-A5/GpH7-B3/GpL16-k0 (=100). Also, in assay [2], the He/Con_2b is 60.8 % of control GpH7-A5/GpH7-B3/GpL16-k0 (=100).

B8: GpH7-A5/GpH7-B3 variant S324_11K/GpL16-k0 (antibody, human IgG1, kappa)
heavy 1: not shown
heavy 2: not shown
light: DIVMTQSPLSLPVTPGEPASISCQASESLVHSNRNTYLHWYLQKPGQSPQLLIYKVSNRFSGVPDRFSGSGSGTDFTLKISRVEAEDVGVYYCSQNTHVPPTFGQGTKVEIERTVAAPSVFIFPPSDEQLKSGTASVVCLLNNFYPREAKVQWKVDNALQSGNSQESVTEQDSKDSTYSLSSTLTLSKADYEKHKVYACEVTHQGLSSPVTKSFNRGEC
notes: as for B1
Regarding B8, in assay [1], the He/Con_1a was 102 % of control GpH7-A5/GpH7-B3/GpL16-k0 (=100). Moreover, the He/Con_2b in assay [2] was 68.6 % of control GpH7-A5/GpH7-B3/GpL16-k0 (=100).

B9: GpH7-A5/GpH7-B3 variant Q295_11K/GpL16-k0 (antibody, human IgG1, kappa)
heavy 1: not shown
heavy 2: not shown
light: DIVMTQSPLSLPVTPGEPASISCQASESLVHSNRNTYLHWYLQKPGQSPQLLIYKVSNRFSGVPDRFSGSGSGTDFTLKISRVEAEDVGVYYCSQNTHVPPTFGQGTKVEIERTVAAPSVFIFPPSDEQLKSGTASVVCLLNNFYPREAKVQWKVDNALQSGNSQESVTEQDSKDSTYSLSSTLTLSKADYEKHKVYACEVTHQGLSSPVTKSFNRGEC
notes: as for B1
With B9, the He/Con_1a in assay [1] was 101 % of control GpH7-A5/GpH7-B3/GpL16-k0 (=100). Also, the He/Con_2b in assay [2] was 70.4 % of control GpH7-A5/GpH7-B3/GpL16-k0 (=100).
